The record followed here is publication PMC3571656.

The assay concerns the target CAX^CK31 (Ca2+/H+ antiporter of Caulobacter sp. K31), purified, lacking tags (Caulobacter sp. K31). In words: SEC-MALS. On the technique in general: Size exclusion chromatography separates by hydrodynamic size, large species first.

As a reminder, the stoichiometry N is a count of units in the complex or per binding partner. For the substance “CAX^CK31 (Ca2+/H+ antiporter of Caulobacter sp. K31), purified, lacking tags (natural protein)”, the stoichiometry N amounted to 2.
